Experimental data reported in patent US20200369765A1.
Numbering of substitutions follows the chain as printed.

B1: mAb4 (antibody, human IgG1, V domains shown)
VH: DVQLVESGGDLVKPGGSLKLSCAASGFAFSSYDMSWVRQSPEKRLEWIAHIGSGGGNIYYPDTVKGRFTISRDNAKNTLYLQMRSLKSEDTAMYYCARLIFTTGFYGMDYWGQGTSVTVSS
VL: DIQMTQTTSSLSASLGDRVTISCRASQDISSYLNWYQQKPDGTIKLLIYYTSRLHSGVPSRFSGSGSGTDYSLTISNLDQDDIATYFCQQGNALPWTFGGGTKLEIK
B2: mAb1 (antibody, human IgG1, V domains shown)
VH: DVQLQESGPGLVKPSQSLSLTCTVTGYSITGGFAWNWIRQFPGNTLEWMGYIGYGGSTSYNPSLNSRISITRDTSKNHFFLQFNSVTTDDSATYYCARGDYLFAYWGQGTLVTVSA
VL: DIVMTQSHKFMSTSVGDRVSITCKASQDVNTAVAWYQQKPGQSPKLLIYSASYRYTGVPDRFTGSGSGTDFTFTISSVQAEDLAVYYCQQHYSTPRTFGGGTKLEIK
B3: mAb2 (antibody, human IgG1, V domains shown)
VH: B2 VH with D1E, D89E
VL: B2 VL
B4: mAb3 (antibody, human IgG1, V domains shown)
VH: B2 VH with D1E, Q5L, S7T, D89E
VL: DILMTQSPASLSASVGETVSITCRASGNIHNYLAWYLQRQGKSPQLLVYNAKTLADGVPSRFSGTGSGTQFSLKINSLQPEDFGSYYCQHFWSTPRTFGGGTKLEIK
B5: mAb5 (antibody, human IgG1, V domains shown)
VH: EIQLQQSGPELEKPGASVKISCKASGYSFSDYNMNWVKQSNGKSLEWIGNIDPYYGATSYNQRFKGKATLTVDKSSSTAYMQLKSLTSEDSAVYYCARGDSLFAYWGHGTLVTVSA
VL: DIVMTQSQEFMSTSLGDRVSVTCKASQNVGTNVAWYQQKPGQSPKALLYSASSRYSGVPDRFTGSGSGTDFTLTISNVQSEDLAEYFCQQYITYPYTFGGGTKLEIK
B6: mAb6 (antibody, human IgG1, V domains shown)
VH: B5 VH with H108Q
VL: B5 VL with S76N, V78M

The binders below were run against Siglec-7 and/or Siglec-9 on fresh purified human NK cells (assay: flow cytometry on fresh purified human NK cells, mean of 4 donors).

Binder	EC50
B1	0.61 µg/mL
B2	0.05 µg/mL
B3	0.07 µg/mL
B4	0.19 µg/mL
B5	1.27 µg/mL
B6	1.3 µg/mL
